Assay results taken from patent US20230167164A1 (IMMUNOWAKE, published 2023).

Molecular target: T1, human IL-2 receptor (human, UniProt P01589 22-272; P14784 27-551; P31785 23-369)
T1 construct: whole, on cells; also called IL-2Rα, IL-2Rβ, IL-2Rγ; HEK-Blue IL-2 cells
T1 sequence (looked up) 1: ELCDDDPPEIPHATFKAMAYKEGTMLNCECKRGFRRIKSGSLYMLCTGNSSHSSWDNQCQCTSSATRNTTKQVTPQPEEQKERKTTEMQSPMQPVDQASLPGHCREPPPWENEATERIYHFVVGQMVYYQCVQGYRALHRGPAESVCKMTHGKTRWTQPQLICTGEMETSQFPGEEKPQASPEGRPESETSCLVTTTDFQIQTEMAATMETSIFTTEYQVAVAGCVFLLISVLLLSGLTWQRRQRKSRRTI
T1 sequence (looked up) 2: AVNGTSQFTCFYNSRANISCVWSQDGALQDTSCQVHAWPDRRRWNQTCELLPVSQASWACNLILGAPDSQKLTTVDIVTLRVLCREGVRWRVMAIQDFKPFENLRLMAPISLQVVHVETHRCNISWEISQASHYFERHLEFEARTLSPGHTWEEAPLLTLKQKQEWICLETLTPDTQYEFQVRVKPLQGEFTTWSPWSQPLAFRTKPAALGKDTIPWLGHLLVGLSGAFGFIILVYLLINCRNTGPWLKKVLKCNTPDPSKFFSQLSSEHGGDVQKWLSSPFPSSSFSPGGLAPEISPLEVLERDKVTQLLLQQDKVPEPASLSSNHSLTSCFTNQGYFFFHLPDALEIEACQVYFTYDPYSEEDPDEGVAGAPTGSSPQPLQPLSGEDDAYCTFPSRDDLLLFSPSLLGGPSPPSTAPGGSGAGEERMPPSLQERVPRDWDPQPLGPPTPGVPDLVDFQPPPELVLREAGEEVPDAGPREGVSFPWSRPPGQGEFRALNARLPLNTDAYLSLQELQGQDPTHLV
T1 sequence (looked up) 3: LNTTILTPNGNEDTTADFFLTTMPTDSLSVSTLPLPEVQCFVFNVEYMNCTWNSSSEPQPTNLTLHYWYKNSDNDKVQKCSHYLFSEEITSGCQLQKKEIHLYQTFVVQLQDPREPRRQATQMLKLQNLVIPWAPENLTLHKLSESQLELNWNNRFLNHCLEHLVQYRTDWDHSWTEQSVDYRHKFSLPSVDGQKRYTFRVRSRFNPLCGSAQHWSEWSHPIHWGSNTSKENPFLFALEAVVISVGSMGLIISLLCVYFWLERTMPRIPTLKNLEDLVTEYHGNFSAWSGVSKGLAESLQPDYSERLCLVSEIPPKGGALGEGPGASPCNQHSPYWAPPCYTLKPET
Test: FACS on HEK-Blue IL-2 cells (IL-2 receptor, no PD-1)

B1: ligand-IL-2 mutant-PD-L2-Fc (Fc fusion)
chain 1: LFTVTVPKELYIIEHGSNVTLECNFDTGSHVNLGAITASLQKVENDTSPHRERATLLEEQLPLGKASFHIPQVQVRDEGQYQCIIIYGVAWDYKYLTLKVKASYRKINTHILKVPETDEVELTCQATGYPLAEVSWPNVSVPANTSHSRTPEGLYQVTSVLRLKPPPGRNFSCVFWNTHVRELTLASIDLQSQMEPRTHPTGGGGSAPTSSSTKKTQLQLEHLLLDLQMILNGINNYKNPKLTDMLTFEFYMPKKATELKHLQCLERELKPLEEVLNLAQSKNFHLRPRDLISNINVIVLELKGSETTFMCEYADETATIVEFLNRWITFCQSIISTLTDKTHTCPPCPAPEDEGGPSVFLFPPKPKDTLMISRTPEVTCVVVDVSHEDPEVKFNWYVDGVEVHNAKTKPREEQYNSTYRVVSVLTVLHQDWLNGKEYKCKVSNKALPAPIEKTISKAKGQPREPQVYVYPPSREEMTKNQVSLTCLVKGFYPSDIAVEWESNGQPENNYKTTPPVLDEDGSFALVSKLTVDKSRWQQGNVFSCSVMHEALHNHYTQKSLSLSPGK
chain 2: LFTVTVPKELYIIEHGSNVTLECNFDTGSHVNLGAITASLQKVENDTSPHRERATLLEEQLPLGKASFHIPQVQVRDEGQYQCIIIYGVAWDYKYLTLKVKASYRKINTHILKVPETDEVELTCQATGYPLAEVSWPNVSVPANTSHSRTPEGLYQVTSVLRLKPPPGRNFSCVFWNTHVRELTLASIDLQSQMEPRTHPTGGGGSDKTHTCPPCPAPEKKGGPSVFLFPPKPKDTLMISRTPEVTCVVVDVSHEDPEVKFNWYVDGVEVHNAKTKPREEQYNSTYRVVSVLTVLHQDWLNGKEYKCKVSNKALPAPIEKTISKAKGQPREPQVYVLPPSREEMTKNQVSLLCLVKGFYPSDIAVEWESNGQPENRYMTWPPVLDSDGSFFLYSKLTVDKSRWQQGNVFSCSVMHEALHNHYTQKSLSLSPGK
notes: also called IL-2(R38D/K43E/E61R)/PD-L2-Fc immunocytokine; construct #11
Question: Does B1 bind?
Answer: Result: no binding
